Data from patent US7465582B1, “Nurr-1 induction of a dopaminergic neuronal fate in a neural stem cell or neural progenitor cell in vitro” (Neuro Therapeutics AB, priority 2000, dated 2008).

B1: CNTF: Ciliary Neurotrophic Factor (protein, UniProt P26441 1-200, looked up)
Ciliary neurotrophic factor: MAFTEHSPLTPHRRDLCSRSIWLARKIRSDLTALTESYVKHQGLNKNINLDSADGMPVASTDQWSELTEAERLQENLQAYRTFHVLLARLLEDQQVHFTPTEGDFHQAIHTLLLQVAAFAYQIEELMILLEYKIPRNEADGMPINVGDGGLFEKKLWGLKVLQELSQWTVRSIHDLRFISSHQTGIPARGSHYIANNKKM
B2: BDNF: Brain Derived Neurotrophic Factor (protein, UniProt P23560 19-247, looked up)
Neurotrophic factor BDNF …: APMKEANIRGQGGLAYPGVRTHGTLESVNGPKAGSRGLTSLADTFEHVIEELLDEDQKVRPNEENNKDADLYTSRVMLSSQVPLEPPLLFLLEEYKNYLDAANMSMRVRRHSDPARRGELSVCDSISEWVTAADKKTAVDMSGGTVTVLEKVPVSKGQLKQYFYETKCNPMGYTKEGCRGIDKRHWNSQCRTTQSYVRALTMDSKKRIGWRFIRIDTSCVCTLTIKRGR
B3: GDNF: Glial cell line-Derived Neurotrophic Factor (protein, UniProt P39905 78-211, looked up)
Glial cell line-derived …: SPDKQMAVLPRRERNRQAAAANPENSRGKGRRGQRGKNRGCVLTAIHLNVTDLGLGYETKEELIFRYCSGSCDAAETTYDKILKNLSRNRRLVSDKVGQACCRPIAFDDDLSFLDDNLVYHILRKHSAKRCGCI
B4: NT-3: neurotrophin-3 (protein, UniProt P20783 139-257, looked up)
Neurotrophin-3: YAEHKSHRGEYSVCDSESLWVTDKSSAIDIRGHQVTVLGEIKTGNSPVKQYFYETRCKEARPVKNGCRGIDDKHWNSQCKTSQTYVRALTSENNKLVGWRWIRIDTSCVCALSRKIGRT

Tests used:
[1] = test system: Nurr1 over-expressing C17.2 clones; experiment: Treatment of Nurr1 clones with trophic factors, mitogens, cytokines and other agents; TH immunoreactivity; format: cell-based, mouse; conditions: Nurr1 clones without co-culture; factors alone or combined
From the text: C17.2 cells were cotransfected with a CMX-Nurr1 expression vector (Perlmann, T. et al. Genes Dev. 9, 769-782 (1995)) and PGK-puromycin resistance plasmids (Nurr1 clones) or a PGK-puromycin alone (mock clones). For reporter assays, C17.2 parental cells were transfected with the Nurr1 expression vector, the reporter plasmid (NGFIB-binding response element (NBRE) triplet upstream of TK minimal promoter fused to firefly luciferase) and a pRSV-alkaline phosphatase plasmid at a 2:1:2 ratio.
C17.2 neural stem cells (Snyder, E. Y. et al. Cell 68, 33-51 (1992)) were maintained and passaged as previously described (Snyder, E. Y. et al. Cell 68, 33-51 (1992)). Ventral mesencephala from E16 rat embryos were dissected, mechanically dissociated and plated at a final density of 1×10^5 cells/cm^2 on poly-D-lysine coated culture wells in a defined, serum-free medium (N^2, consisting of a 1:1 mixture of F12 and DMEM containing insulin (10 ng/ml), transferrin (100 μg/ml), putrescine (100 μM), progesterone (20 nM), selenium (30 nM) glucose (6 mg/ml), and bovine serum albumin (1 mg/ml)). After 24 hours in vitro, co-cultures were initiated by directly plating 2.5−5×10^4 C17.2-derived cells into the primary cultures; all ages of cultures given use this point as 0 DIV. […] Purified Type 1 astrocytes were obtained from mixed glial cultures derived from various regions of P1 rats according to a standard protocol (McCarthy, K. D. et al. J. Cell Biol. 85, 890-902 (1980)). After replating into 6- or 12-well plates, astrocytes were grown to confluency in serum-containing media and changed to N2 medium. After 3-5 DIV, co-cultures were initiated in fresh N2 as described above. All factors were added once, at the initiation of co-culture (concentrations are noted in the Results and Discussion), with the exception of 5-bromodeoxyuridine (BrdU), which was added 4-6 hours prior to fixation. […]
Fixed cultures were incubated with one of the following antibodies, diluted appropriately in phosphate-buffered saline (PBS) containing 1% bovine serum albumin and 0.3% Triton-X 100: mouse anti-BrdU, 1:50 (DAKO, Denmark), mouse anti-β-tubulin, Type III (TuJ1), 1:250 (Sigma), mouse anti-TH, 1:1000 (Incstar, USA), rabbit anti-β-galactosidase, 1:250 (Cappel, USA) rabbit anti-GFAP, 1:500 (DAKO, Denmark), rabbit anti-AHD-2, 1:4000. […] Quantitative immunocytochemical data represent means and standard errors from 100-500 cells counted in each of 3-6 separate wells from 2-4 experiments. For quantitation of TH expression in co-cultures of primary and C-17.2-derived cells, TH was visualized with the brightfield AEC substrate, while β-gal was assessed using FITC, thus all data expressed as “% TH+” represents the number of TH+/β-gal+divided by total β-gal positive cells.

[2] = test system: Nurr1-c42-derived dopaminergic neurons; experiment: Response of TH positive c42 cells in co-culture to neurotrophic factors; format: cell-based, mouse; conditions: 9 DIV, after SR11237 and bFGF induction; for neuritogenesis and/or hypertrophy: BDNF 30 ng/ml, CNTF 10 ng/ml, GDNF 10 ng/ml
Protocol: C17.2 neural stem cells (Snyder, E. Y. et al. Cell 68, 33-51 (1992)) were maintained and passaged as previously described (Snyder, E. Y. et al. Cell 68, 33-51 (1992)). Ventral mesencephala from E16 rat embryos were dissected, mechanically dissociated and plated at a final density of 1×10^5 cells/cm^2 on poly-D-lysine coated culture wells in a defined, serum-free medium (N^2, consisting of a 1:1 mixture of F12 and DMEM containing insulin (10 ng/ml), transferrin (100 μg/ml), putrescine (100 μM), progesterone (20 nM), selenium (30 nM) glucose (6 mg/ml), and bovine serum albumin (1 mg/ml)). After 24 hours in vitro, co-cultures were initiated by directly plating 2.5−5×10^4 C17.2-derived cells into the primary cultures; all ages of cultures given use this point as 0 DIV. […] Purified Type 1 astrocytes were obtained from mixed glial cultures derived from various regions of P1 rats according to a standard protocol (McCarthy, K. D. et al. J. Cell Biol. 85, 890-902 (1980)). After replating into 6- or 12-well plates, astrocytes were grown to confluency in serum-containing media and changed to N2 medium. After 3-5 DIV, co-cultures were initiated in fresh N2 as described above. All factors were added once, at the initiation of co-culture (concentrations are noted in the Results and Discussion), with the exception of 5-bromodeoxyuridine (BrdU), which was added 4-6 hours prior to fixation. Cultures were maintained in a humidified 5% CO2, 95% air incubator at 37 C and fixed after given time periods with 4% paraformaldehyde for 45 minutes for immunocytochemical analysis.
Fixed cultures were incubated with one of the following antibodies, diluted appropriately in phosphate-buffered saline (PBS) containing 1% bovine serum albumin and 0.3% Triton-X 100: mouse anti-BrdU, 1:50 (DAKO, Denmark), mouse anti-β-tubulin, Type III (TuJ1), 1:250 (Sigma), mouse anti-TH, 1:1000 (Incstar, USA), rabbit anti-β-galactosidase, 1:250 (Cappel, USA) rabbit anti-GFAP, 1:500 (DAKO, Denmark), rabbit anti-AHD-2, 1:4000. Incubations were either carried out at 4° C. overnight, or at room temperature for 1 hour. Both processes yielded similar results. After washing, cultures were incubated for 1-3 hr with appropriate secondary antibodies (biotinylated horse-anti-mouse IgG or goat-anti-rabbit IgG, Vector, USA), 1:100, in the same dilution buffer. […] Quantitative immunocytochemical data represent means and standard errors from 100-500 cells counted in each of 3-6 separate wells from 2-4 experiments. For quantitation of TH expression in co-cultures of primary and C-17.2-derived cells, TH was visualized with the brightfield AEC substrate, while β-gal was assessed using FITC, thus all data expressed as “% TH+” represents the number of TH+/β-gal+divided by total β-gal positive cells. […]

Row | Molecule | induction of TH expression [1] | neuritogenesis and/or hypertrophy [2] | number of TH+ cells in the culture ([2]; compared to N2 control, NT-3 30 ng/ml)
1 | B1 | None of these factors induced TH expression in any of the clones | induced neuritogenesis and/or hypertrophy | 
2 | B2 | None of these factors induced TH expression in any of the clones | induced neuritogenesis and/or hypertrophy | 
3 | B3 | None of these factors induced TH expression in any of the clones | induced neuritogenesis and/or hypertrophy | 
4 | B4 | None of these factors induced TH expression in any of the clones |  | dramatically increased the number of TH+ cells
